Patent publication US7098372B1, “Pharmaceutical compositions and methods of using secreted frizzled related protein” (Wyeth, priority 1999, dated 2006)

Assays:
[1] = target: T1, PTH-1 receptor (Homo sapiens, UniProt Q03431); assay: Intracellular cAMP assay in hOB-01-C1-PS-09 cells; assay type: cell-based; conditions: preincubation at 34° C.
T1 construct: the hOB-01-C1-PS-09 cell line was selected for further characterization based on its high-level of PTH-1 receptor mRNA expression; endogenous in cells; host or cells: hOB-01-C1-PS-09 cells (ATCC PTA-785)
T1 sequence (Q03431 27-593): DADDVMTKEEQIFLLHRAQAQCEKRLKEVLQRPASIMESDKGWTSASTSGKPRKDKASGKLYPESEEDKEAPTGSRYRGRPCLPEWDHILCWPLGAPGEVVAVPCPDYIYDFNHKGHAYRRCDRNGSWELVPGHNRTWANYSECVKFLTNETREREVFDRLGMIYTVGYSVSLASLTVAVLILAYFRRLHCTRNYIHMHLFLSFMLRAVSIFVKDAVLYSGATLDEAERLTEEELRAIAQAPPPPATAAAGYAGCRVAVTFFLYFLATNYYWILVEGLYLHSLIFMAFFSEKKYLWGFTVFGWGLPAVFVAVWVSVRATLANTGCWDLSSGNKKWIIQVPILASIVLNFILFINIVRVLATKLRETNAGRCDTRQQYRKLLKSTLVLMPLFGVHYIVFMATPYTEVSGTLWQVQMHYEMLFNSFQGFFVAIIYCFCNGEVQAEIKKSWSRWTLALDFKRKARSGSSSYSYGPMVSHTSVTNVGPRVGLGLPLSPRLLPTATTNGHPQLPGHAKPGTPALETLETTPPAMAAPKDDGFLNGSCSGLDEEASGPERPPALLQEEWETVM
Method: As mentioned above, the hOB-01-C1-PS-09 cell line was selected for further characterization based on its high-level of PTH-1 receptor mRNA expression. […] Consistent with this enhanced PTH-1 receptor expression, […] increasing concentrations of human PTH 1–34 (hPTH 1–34) for 10 min at 37° C. generates a dose-dependent 5- to 6-fold increase in intracellular cyclic-adenosine monophosphate (cAMP) levels (FIG. 24). […] Thus, both PTH-1 receptor expression and responsiveness are enhanced following inactivation of the tsA-209 T-antigen. One potential utility for this cAMP assay would be the ability to characterize the activities of PTH-analogs or -mimetics in an important target cell under conditions where levels of PTH-1 receptor expression are dramatically altered.

[2] = tested on: hOB SFRP mRNA; assay: Northern blot analysis of hOB SFRP mRNA expression; assay type: cell-based, human
From the text: The hOB SFRP gene fragment was identified using RADE (rapid analysis of differential expression) technology as described by Shiue 1997 Drug Develop. Res. 41: 142–159, the whole of which is incorporated herein. Three hOB cell lines (hOB-03-C5, hOB-03-CE6 and hOB-01-C1), representing three distinct stages of differentiation (proliferative, mature and preosteocytic, respectively) were used to isolate and identify SFRP. The hOB cell lines were established and cultured as previously described (Bodine et al. 1996 J. Bone Miner. Res. 11: 806–819; Bodine et al. 1996 Endocrinology 137: 4592–4604; Bodine et al. 1997 J. Cell. Biochem. 65: 368–387). […] However, in contrast to osteosarcoma cells (Stein and Lian 1993 Endocrine Rev. 14: 424–442), the hOB cell lines were faithful to the proliferation/differentiation relationship at the nonpermissive temperature (>37° C.) when the T-antigen mutant is inactivated. The cell lines were seeded into 150 mm dishes at ˜40,000 cells/cm^2 with growth medium [D-MEM/F-12 containing 10% (v/v) heat-inactivated fetal bovine serum (FBS), 1% (v/v) Penicillin-Streptomycin and 2 mM GlutaMAX-1] and incubated overnight at 34° C. The next day, the medium was removed, the cells were rinsed with phosphate-buffered saline (PBS), 20 ml of serum-free medium was added to the dishes [phenol red-free D-MEM/F-12 (Gibco/BRL) containing 0.25% (w/v) bovine serum albumin (BSA, Pentex crystallized, Bayer), 1% (v/v) Penicillin-Streptomycin, 2 mM GlutaMAX-1, […] ascorbate-2-phosphate (Wako), and 10 nM menadione sodium bisulfite (vitamin K3)], and the dishes were incubated at 39° C. for 24 hr. The next day, the medium was removed and the cells were treated at 39° C. for an additional 24 hr with 20 ml of fresh serum-free medium containing either vehicle (Control), 8 nM human parathyroid hormone 1–34 (PTH), 100 nM prostaglandin E2 (PGE2) or 0.1 nM human transforming growth factor-β1 (TGF-β1). PTH, PGE2 and TGF-β1 are known osteogenic agents (Whitfield and Morley 1995 Trends Pharmaceut. Sci. 16:382–386; Jee and Ma 1997 Bone 21:297–304; Centrella et al. 1994 Endocrine Rev. 15:27–39). After the treatment period, the dishes were rinsed with PBS and total cellular RNA was isolated from the nontreated and treated cells using TRIzol according to the manufacturers instructions (GibcoBRL). RADE was then performed with the isolated RNA samples as above; the regulated gene fragments were identified, cloned and sequenced. These experiments identified a total of 82 differentially expressed genes. A BLAST (basic local alignment search tool) search of the public data bases was performed on the RADE-obtained gene fragments; one of the gene fragments was highly homologous to mouse SFRP-1. This gene fragment was identified during RADE using the following primer pair: 5′-[…]-3′ (HT11A)3′ end (reverse primer) and 5′-[…]-3′ (H-AP1) 5′ end (forward primer), which sequences are SEQ ID NO 11 and SEQ ID NO 12, respectively. The expression and regulation of the gene fragment having homology to mouse cDNA SFRP-1 was confirmed by Northern blot analysis.
In order to confirm the regulation of hOB SFRP gene expression by different osteogenic agents (i.e., the DNA fragment identified in Example 1, above), the hOB cell lines were treated with PTH, PGE2, and TGF-β1; RNA was then isolated for Northern hybridizations. The experiments were performed as follows. The hOB cell lines were seeded into 150 mm dishes and treated as described in Example 1, except that polyA+ RNA was isolated from total cellular RNA using Oligotex mRNA maxi kits as described by the manufacturer (Qiagen). Northern blot analysis was performed using either the excised RADE hOB SFRP gene fragment, the cloned hOB SFRP gene fragment or the cloned full-length hOB SFRP cDNA as a ^32P-labeled probe (as described in Bodine et al. 1996 J. Bone Miner. Res. 11: 806–819, which is incorporated herein). Each of these probes detected a 4.4–4.6 kb message in the hOB cells. […]

[3] = tested on: hOB SFRP mRNA; assay: hOB SFRP mRNA levels after treatment with various agents (method not given); assay type: cell-based, human; conditions: various hOB cell lines
[4] = tested on: hOB-01-C1-PS-09 cells; assay: Cell viability of hOB-01-C1-PS-09 cells stably transfected with hOB SFRP cDNA; assay type: cell-based, human; conditions: stably transfected hOB-01-C1-PS-09 cells
From the text: For these experiments, the cells were stably transfected with either an hOB SFRP cDNA (i.e., SFRP-1/FRP-1/SARP-2) mammalian expression plasmid or the empty vector (i.e., pcDNA3.1). The results are presented as the % of the day 0 control cells.
For these experiments, the cells were stably transfected with either an hOB SFRP cDNA (i.e., SFRP-1/FRP-1/SARP-2) mammalian expression plasmid or the empty vector (i.e., pcDNA3.1, which is obtained from Invitrogen of Carlsbad, Calif.). Standard cloning technigues were used (See Ausubel et al. 1997 Short Protocols in M<olecular Biology, 3rd edition, Wiley {New York}). The results are presented as the % of the day 0 control cells.

[5] = tested on: Wnt signaling; assay: TCF-luciferase reporter gene assay of Wnt signaling; assay type: cell-based, human; conditions: transfected cDNA, hOB-01-C1-PS-09 or hOB-02-C1-PS-02 cells
Method: SARP-2 or human Frzb-1 expression plasmids downregulates Wnt signaling (when compared to the pcDNA3.1 empty vector control) in the hOB cells as measured by the TCF-luciferase reporter gene assay. This assay is an authentic measurement of Wnt signaling and β-catenin nuclear activity.
In order to determine if the up-regulation of SFRP-1/FRP-1/SARP-2 gene expression results in an antagonism of the Wnt signaling pathway, hOB-03-CE6 cells were treated with PGE2 and the resulting cells probed with β-catenin monoclonal antibody. Overexpression of Wnt proteins in cells up-regulates a signaling protein known as β-catenin (reviewed in Moon et al. 1997 Cell 88: 725–728; Barth et al. 1997 Curr. Opin. Cell Biol. 9: 683–690; and Nusse 1997 Cell 89: 321–323). […] Therefore, hOB-03-CE6 cells were plated and treated with PGE2 as described in Example 1, except that total cellular protein was extracted and a Western blot analysis for β-catenin was performed using a monoclonal antibody to the protein (Transduction Laboratories) as previously described (Bodine et al. 1996 Endocrinology 137: 4592–4604; Melkonyan et al. 1997 Proc. Natl. Acad. Sci. USA 94: 13636–13641). […] Both human and rat SFRP-1/FRP-1/SARP-2, as well as human Frzb-1/FrzB/Fritz, suppressed TCF-luciferase activity in the hOB cells.

## human parathyroid hormone 1–34 [PTH]
[1]
  increase in cAMP concentrations: does not result in a subsequent increase
[2]; SaOS-2 human osteosarcoma cells, 24 hr, 37° C.
  regulation of SFRP mRNA: not regulated
[2]; hOB-01-C1 cells, 8 nM
  suppression of basal hOB SFRP expression: 35%
[3]
  effect on hOB SFRP message expression: suppresses

B1: SFRP-1/FRP-1/SARP-2: human osteoblast secreted frizzled related protein, SEQ ID NO 2, expressed from transfected cDNA in pcDNA3.1 (protein, listed as Homo sapiens)
chain: MGIGRSEGGRRGAALGVLLALGAALLAVGSASEYDYVSFQSDIGPYQSGRFYTKPPQCVDIPADLRLCHNVGYKKMVLPNLLEHETMAEVKQQASSWVPLLNKNCHAGTQVFLCSLFAPVCLDRPIYPCRWLCEAVRDSCEPVMQFFGFYWPEMLKCDKFPEGDVCIAMTPPNATEASKPQGTTVCPPCDNELKSEAIIEHLCASEFALRMKIKEVKKENGDKKIVPKKKKPLKLGPIKKKDLKKLVLYLKNGADCPCHQLDNLSHHFLIMGRKVKSQYLLTAIHKWDKKNKEFKNFMKKMKNHECPTFQSVFK
[4]
  rate of cell death on overexpression versus empty vector: accelerates the rate of cell death
[5]
  TCF-luciferase activity: suppressed
